Measured values as given in US20230183713A1, “SITE-SPECIFIC RECOMBINASES FOR EFFICIENT AND SPECIFIC GENOME EDITING” (TECHNISCHE UNIVERSITÄt DRESDEN, published 2023).

Tests used:
[1] = molecular target: T1, Cre recombinase monomer with W315I mutation
T1 chain: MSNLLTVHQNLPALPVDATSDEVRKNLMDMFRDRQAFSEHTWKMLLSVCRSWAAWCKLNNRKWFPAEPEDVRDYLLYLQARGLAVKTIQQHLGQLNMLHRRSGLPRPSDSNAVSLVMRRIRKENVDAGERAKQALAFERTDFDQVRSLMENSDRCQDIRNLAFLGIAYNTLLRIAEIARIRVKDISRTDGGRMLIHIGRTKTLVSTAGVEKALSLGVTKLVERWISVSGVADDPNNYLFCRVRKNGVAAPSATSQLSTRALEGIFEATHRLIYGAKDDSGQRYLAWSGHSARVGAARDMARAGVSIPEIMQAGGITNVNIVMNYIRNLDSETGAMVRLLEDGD

[2] = molecular target: T2, Cre recombinase monomer with Y324R mutation
T2 chain: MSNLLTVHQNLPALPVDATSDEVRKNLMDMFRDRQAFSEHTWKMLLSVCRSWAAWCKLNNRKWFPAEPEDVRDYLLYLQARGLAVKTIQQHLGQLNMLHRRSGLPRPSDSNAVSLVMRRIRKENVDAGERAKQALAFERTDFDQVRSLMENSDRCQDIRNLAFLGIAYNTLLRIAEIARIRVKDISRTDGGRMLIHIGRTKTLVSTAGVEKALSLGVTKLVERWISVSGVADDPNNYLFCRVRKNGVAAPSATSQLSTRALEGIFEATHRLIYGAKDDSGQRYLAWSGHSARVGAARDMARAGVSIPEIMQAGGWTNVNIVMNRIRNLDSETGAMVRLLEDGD

[3] = molecular target: T3, Cre recombinase monomer with Y324M mutation
T3 chain: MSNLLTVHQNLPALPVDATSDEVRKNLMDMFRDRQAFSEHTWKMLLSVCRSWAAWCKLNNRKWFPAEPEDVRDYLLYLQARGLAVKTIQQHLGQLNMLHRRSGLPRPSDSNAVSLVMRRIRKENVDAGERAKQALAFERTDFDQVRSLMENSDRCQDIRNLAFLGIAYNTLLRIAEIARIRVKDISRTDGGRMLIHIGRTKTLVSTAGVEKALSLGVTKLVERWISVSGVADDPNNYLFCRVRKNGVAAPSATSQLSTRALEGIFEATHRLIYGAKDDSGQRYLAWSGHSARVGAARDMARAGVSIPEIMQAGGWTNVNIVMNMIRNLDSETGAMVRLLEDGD

[4] = molecular target: T4, Cre recombinase monomer with Y324F mutation
T4 chain: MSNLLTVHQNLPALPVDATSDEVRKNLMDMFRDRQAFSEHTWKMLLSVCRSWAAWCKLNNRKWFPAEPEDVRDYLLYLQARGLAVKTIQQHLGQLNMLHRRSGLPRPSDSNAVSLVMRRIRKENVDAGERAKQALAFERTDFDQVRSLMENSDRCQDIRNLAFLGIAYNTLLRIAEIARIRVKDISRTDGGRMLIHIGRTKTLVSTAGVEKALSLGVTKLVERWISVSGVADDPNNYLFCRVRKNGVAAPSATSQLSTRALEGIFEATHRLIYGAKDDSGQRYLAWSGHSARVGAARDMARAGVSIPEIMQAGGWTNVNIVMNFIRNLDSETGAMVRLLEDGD

[5] = molecular target: T5, Cre recombinase monomer with Y324W mutation
T5 chain: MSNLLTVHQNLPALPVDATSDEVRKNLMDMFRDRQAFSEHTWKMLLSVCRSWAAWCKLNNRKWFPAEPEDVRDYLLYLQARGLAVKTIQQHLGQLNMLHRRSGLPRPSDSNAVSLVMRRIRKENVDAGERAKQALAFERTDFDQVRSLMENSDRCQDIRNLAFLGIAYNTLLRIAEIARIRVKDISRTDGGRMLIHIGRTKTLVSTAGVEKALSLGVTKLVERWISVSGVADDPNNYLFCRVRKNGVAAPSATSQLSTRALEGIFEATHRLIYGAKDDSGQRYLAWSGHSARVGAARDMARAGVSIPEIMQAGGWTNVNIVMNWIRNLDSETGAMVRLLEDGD

[6] = molecular target: T6, Cre recombinase monomer with Y324A mutation
T6 chain: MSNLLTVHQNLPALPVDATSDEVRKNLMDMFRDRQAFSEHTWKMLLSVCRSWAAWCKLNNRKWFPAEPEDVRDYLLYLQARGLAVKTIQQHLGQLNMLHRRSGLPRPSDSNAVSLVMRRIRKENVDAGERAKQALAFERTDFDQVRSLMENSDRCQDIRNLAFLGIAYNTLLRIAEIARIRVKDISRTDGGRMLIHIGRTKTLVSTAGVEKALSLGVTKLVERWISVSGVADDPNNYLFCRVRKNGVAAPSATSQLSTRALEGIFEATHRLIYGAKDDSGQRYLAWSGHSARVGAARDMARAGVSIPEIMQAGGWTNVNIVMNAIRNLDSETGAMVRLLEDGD

[7] = molecular target: T7, Cre recombinase monomer with W315Q mutation
T7 chain: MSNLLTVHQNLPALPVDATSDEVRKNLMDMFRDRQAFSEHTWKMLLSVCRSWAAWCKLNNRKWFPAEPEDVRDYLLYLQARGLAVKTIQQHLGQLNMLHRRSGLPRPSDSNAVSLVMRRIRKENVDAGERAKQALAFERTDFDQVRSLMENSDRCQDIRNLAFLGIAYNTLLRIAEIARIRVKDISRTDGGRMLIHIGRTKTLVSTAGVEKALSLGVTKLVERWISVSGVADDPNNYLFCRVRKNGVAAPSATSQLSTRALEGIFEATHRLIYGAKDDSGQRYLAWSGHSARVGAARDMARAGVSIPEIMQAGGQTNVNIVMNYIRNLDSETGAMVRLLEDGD

[8] = molecular target: T8, Cre recombinase monomer with W315V mutation
T8 chain: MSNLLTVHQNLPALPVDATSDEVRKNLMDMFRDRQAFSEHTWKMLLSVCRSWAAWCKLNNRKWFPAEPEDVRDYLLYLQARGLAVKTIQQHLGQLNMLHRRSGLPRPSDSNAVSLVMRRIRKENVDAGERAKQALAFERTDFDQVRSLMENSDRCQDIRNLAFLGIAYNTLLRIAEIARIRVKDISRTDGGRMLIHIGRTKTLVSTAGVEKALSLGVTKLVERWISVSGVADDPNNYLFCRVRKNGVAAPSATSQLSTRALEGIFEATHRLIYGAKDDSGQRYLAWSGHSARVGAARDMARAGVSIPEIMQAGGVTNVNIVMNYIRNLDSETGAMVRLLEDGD

B1: Cre recombinase monomer with Q311R mutation (protein)
chain: MSNLLTVHQNLPALPVDATSDEVRKNLMDMFRDRQAFSEHTWKMLLSVCRSWAAWCKLNNRKWFPAEPEDVRDYLLYLQARGLAVKTIQQHLGQLNMLHRRSGLPRPSDSNAVSLVMRRIRKENVDAGERAKQALAFERTDFDQVRSLMENSDRCQDIRNLAFLGIAYNTLLRIAEIARIRVKDISRTDGGRMLIHIGRTKTLVSTAGVEKALSLGVTKLVERWISVSGVADDPNNYLFCRVRKNGVAAPSATSQLSTRALEGIFEATHRLIYGAKDDSGQRYLAWSGHSARVGAARDMARAGVSIPEIMRAGGWTNVNIVMNYIRNLDSETGAMVRLLEDGD
With B1 the “Median dimer activity (recombination on loxP)” value (“Median dimer activity” for short) [1] was 92%, the “Median dimer activity” value [2] was 61% and the “Median dimer activity” value [3] was 96%. For the same protein, the “Median dimer activity” value [4] was 95%, the “Median dimer activity” value [5] was 95% and the “Median dimer activity” value [6] was 93%. For the same protein, the “Median dimer activity” value [7] was 49% and the “Median dimer activity” value [8] was 91%.
